Test results: paper PMC3303177

How the values were obtained:
His-GAS41 = His-GAS41 (UniProt O95619 1-227); assay: EMSA
GST-AP-2β = GST-AP-2β (UniProt Q92481 1-460); assay: EMSA
Sequence of GST-AP-2β (Q92481 whole entry): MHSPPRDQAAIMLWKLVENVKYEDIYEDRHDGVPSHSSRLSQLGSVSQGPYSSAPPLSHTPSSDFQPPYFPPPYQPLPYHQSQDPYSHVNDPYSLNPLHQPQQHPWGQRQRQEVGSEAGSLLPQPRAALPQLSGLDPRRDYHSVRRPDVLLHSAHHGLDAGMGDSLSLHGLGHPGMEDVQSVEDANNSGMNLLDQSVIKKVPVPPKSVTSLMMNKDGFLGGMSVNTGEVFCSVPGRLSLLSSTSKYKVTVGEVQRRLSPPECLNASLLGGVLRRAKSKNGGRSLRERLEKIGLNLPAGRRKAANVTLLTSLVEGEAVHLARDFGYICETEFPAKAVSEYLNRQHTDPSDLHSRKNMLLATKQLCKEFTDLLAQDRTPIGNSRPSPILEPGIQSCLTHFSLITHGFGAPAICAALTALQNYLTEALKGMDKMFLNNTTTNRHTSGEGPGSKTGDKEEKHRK

Sequence of His-GAS41 (O95619 whole entry): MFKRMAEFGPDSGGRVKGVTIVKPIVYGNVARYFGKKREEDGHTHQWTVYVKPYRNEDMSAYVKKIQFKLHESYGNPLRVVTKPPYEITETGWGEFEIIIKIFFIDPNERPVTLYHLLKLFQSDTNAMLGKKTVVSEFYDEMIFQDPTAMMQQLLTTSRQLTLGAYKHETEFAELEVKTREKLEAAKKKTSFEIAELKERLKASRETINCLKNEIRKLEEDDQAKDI

B1: hMT AP-2 consensus probe (dsDNA)
DNA 1: TGACCGCCCGCGGCCCGTG
DNA 2: CACGGGCCGCGGGCGCTCA
binding result (His-GAS41): no binding | binding result (GST-AP-2β): binds
